From patent publication US6436666
Values joined by “and” are separate entries in the source; they are usually repeats but may differ in a detail not shown here. Identical values can stand only once.

Experiments:
[1] = biological target: Substrate: protein A-G-G-G-G-7aa-NS4B/5A cleavage site-8aa-FLAG-G-FLAG-G-FLAG (Example 6) (hepatitis C virus); assay: time-resolved fluorometry: 20 nM substrate captured on IgG coated Immulon-4 plate, detected with Eu^3+-anti-FLAG MoAb
[2] = biological target: pro A-NS5 target polypeptide of Examples 3 and 4 (protein A anchor region, linker, protease target site of HCV NS5A/5B, linker, FLAG epitope tag region) (hepatitis C virus); assay: ELISA: pro A-NS5 on human IgG plate, no protease, anti-FLAG then goat anti-mouse conjugate
[3] = biological target: pro A-NS5, polypeptide substrate of HCV protease (Example 1 construct: Protein A - NS5A/5B protease target site - three FLAG tags) (hepatitis C virus); assay: ELISA: proA-NS5 2 µg/ml captured on IgG plate, no protease, anti-FLAG then goat anti-mouse-HRP, OPD
[4] = biological target: pro A-NS5, polypeptide substrate of HCV protease (Example 1 construct: Protein A - NS5A/5B protease target site - three FLAG tags) (hepatitis C virus); assay: ELISA: pro A-NS5 on IgG plate, no protease, anti-FLAG then goat anti-mouse-HRP; Exp. 2
[5] = biological target: pro A-NS5, polypeptide substrate of HCV protease (Example 1 construct: Protein A - NS5A/5B protease target site - three FLAG tags) (hepatitis C virus); assay: ELISA: pro A-NS5 10 µg/ml captured on IgG plate, no protease, anti-FLAG then goat anti-mouse-HRP, OPD
[6] = biological target: pro A-NS5, polypeptide substrate of HCV protease (Example 1 construct: Protein A - NS5A/5B protease target site - three FLAG tags) (hepatitis C virus); assay: ELISA: pro A-NS5 on IgG plate, no protease, anti-FLAG then goat anti-mouse-HRP; Exp. 1
[7] = biological target: Peptide 4A, a co-factor of the NS3 HCV protease (Example 2)

## Eu^3+-anti-FLAG MoAb (Sigma via Kodak, cat#IB13026, lot# 710413) (antibody)
[1]
  Eu^3+ counts: 1.31e+06 Eu^3+ counts and 1.26e+06 Eu^3+ counts

## Mouse monoclonal anti-FLAG M2 (IBI, IBI13010/6j0612) (antibody)
[2]
  OD w/o DMSO: 2.6 OD

## monoclonal anti-FLAG mouse antibody (available from Kodak)
[3]
  OD: 0.77 OD
[4]
  OD: 0.93 OD
[5]
  OD: 1.21 OD
[6]
  OD: 1.23 OD

B1: protease 1: Ni-13 (F21) 20 µM, preparation made at Chiron (protein)
chain: APITAYAQQTRGLLGCIITSLTGRDKNQVEGEVQIVSTAAQTFLATCINGVCWTVYHGAGTRTIASPKGPVIQMYTNVDQDLVGWPAPQGSRSLTPCTCGSSDLYLVTRHADVIPVRRRGDSRGSLLSPRPISYLKGSSGGPLLCPAGHAVGIFRAAVCTRGVAKAVDFIPVENLETTMRS
[7]
  cleavage of the NS4B/5A substrate by the protease with and without the co-factor peptide: These data demonstrates the operability of the screening assay using HCV NS4B/5A protease cleavage site with co-factor peptide 4A
